Reference: the supplement of paper PMC9732359
± gives the uncertainty stated by the source.

Experiment: protein stability index of a GFP-peptide fusion (yeast GPS) (PSI 1-4); higher = more stable; sorted into four equal gates, so the index is relative within each strain
Method in brief: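 Each library plasmid carries Cherry plus GFP with a tiled 17-residue yeast protein peptide fused downstream, and the pooled library was carried in yeast. Mid-log cultures in leucine-free medium were sorted into four equal gates by GFP/Cherry ratio. Reads from Illumina sequencing of PCR-amplified plasmids from each gate were assigned to strains by barcodes. Per peptide, the protein stability index was computed as the summed products of gate read frequency and gate number.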

Row | Sequence | protein stability index (doa10∆) | protein stability index (pdr5∆) | protein stability index (san1∆) | protein stability index (ubr1∆)
1 | LRSDIPCLSRSCTKCPQ [DIS3] | 2.89 ± 0.04 | 2.94 ± 0.04 | 2.91 ± 0.031 | 2.92 ± 0.033
2 | LRSNKCILYDADESKMA [RET1] |  | 3.07 ± 0.18 |  | 
3 | LRSTIANLLQINVDNDP [YML103C/NUP188] | 2.21 ± 0.1 | 1.4 ± 0.13 |  | 1.15 ± 0.15
4 | LRYVIMKNPDVEFCGYS [RPC19] | 2.2 ± 0.14 | 2.07 ± 0.081 | 2.3 ± 0.15 | 2.87 ± 0.091
5 | LSAEYLVILKPDLNIDR [SIN4] | 2.97 ± 0.063 | 3.1 ± 0.1 | 2.97 ± 0.058 | 2.94 ± 0.045
6 | LSATGTRSAKKMVIAEL [YJR042W/NUP85] |  |  | 2.97 ± 0.15 | 
7 | LSAVAQAESMKFKLLNG [RPS3] | 3.06 ± 0.1 | 3.21 ± 0.1 | 2.83 ± 0.12 | 3.09 ± 0.079
8 | LSEATESDLYKLKECPF [RPB2] | 3.12 ± 0.11 | 2.91 ± 0.19 | 3.23 ± 0.1 | 2.91 ± 0.1
9 | LSEDELRELDVELIESK [SMC4] | 3.33 ± 0.18 | 3.72 ± 0.24 | 3.4 ± 0.11 | 3.23 ± 0.073
10 | LSESLTKFFDDAKSTPL [RPN9] | 3.01 ± 0.07 | 3.26 ± 0.069 | 3.18 ± 0.055 | 3.12 ± 0.068
11 | LSEYDAIQKKDNKDKEG [YOR098C/NUP1] | 3.35 ± 0.13 | 3.33 ± 0.097 | 3.38 ± 0.11 | 3.38 ± 0.067
12 | LSEYLTKFQTTDRESYP [YCS4] |  | 3.28 ± 0.2 |  | 2.94 ± 0.14
13 | LSFGTATSDNKTTNTTP [YJL041W/NSP1] | 2.21 ± 0.088 | 3.05 ± 0.083 | 2.24 ± 0.1 | 2.15 ± 0.094
14 | LSFINPKTGKVERSEAI [SEC65] | 3.6 ± 0.17 | 3.47 ± 0.081 | 3.33 ± 0.14 | 3.22 ± 0.073
15 | LSGNPLTSVTNDICSVE [SIR4] | 2.54 ± 0.068 | 2.95 ± 0.064 | 3.09 ± 0.058 | 2.96 ± 0.062
16 | LSGVSNSMDMVDGMAKV [RGR1] | 3.48 ± 0.11 | 3.29 ± 0.11 | 3.44 ± 0.13 | 3.34 ± 0.064
17 | LSIAFENGDYAACEKLL [RPN12] | 3.13 ± 0.17 | 3 ± 0.12 | 3.16 ± 0.077 | 3.24 ± 0.12
18 | LSIDKVLKKPNRAMEYD [RET1] | 3.01 ± 0.18 | 2.56 ± 0.16 | 3.18 ± 0.2 | 1.98 ± 0.28
19 | LSIELEGGKNQAELLQL [YJL039C/NUP192] | 2.85 ± 0.14 | 3.11 ± 0.099 | 3.31 ± 0.21 | 2.67 ± 0.11
20 | LSINKNFINQEDEGEER [RPC17] |  | 3.29 ± 0.28 |  | 
21 | LSLGMDFIKFDQIAVCE [BRN1] | 3 ± 0.085 | 3.01 ± 0.079 | 2.77 ± 0.057 | 2.89 ± 0.071
22 | LSLQRANVEILAVEDKP [CSL4] | 1.35 ± 0.054 | 1.44 ± 0.061 | 1.67 ± 0.092 | 1.61 ± 0.044
23 | LSNEFTATNSKGEQIAI [ECM29] | 3.06 ± 0.11 | 3.25 ± 0.12 | 2.91 ± 0.18 | 3.26 ± 0.11
24 | LSQLCAVPLQIVSPQSN [RPO21] | 1.88 ± 0.063 | 1.91 ± 0.058 | 1.9 ± 0.084 | 1.87 ± 0.04
25 | LSQSRIKIKSLEYEISK [YIL149C/MLP2] | 2.08 ± 0.051 | 2.68 ± 0.055 | 2.37 ± 0.07 | 2.07 ± 0.041
26 | LSRPSLPKIKTVRKSIA [RPL35A] | 1.54 ± 0.06 | 1.94 ± 0.073 | 2.31 ± 0.059 | 1.85 ± 0.054
27 | LSSDDLLGKESFKKIIK [YCS4] | 3.25 ± 0.19 | 3.08 ± 0.22 | 3.39 ± 0.063 | 3.57 ± 0.1

Row | Sequence | protein stability index (doa10∆) | protein stability index (pdr5∆) | protein stability index (san1∆) | protein stability index (ubr1∆)
28 | LSTSEDVSIEELLREWL [IRR1] | 3.25 ± 0.16 | 2.31 ± 0.21 |  | 1.53 ± 0.15
29 | LSVMCGCGTVKRFNIGA [RPR2] | 3.16 ± 0.21 | 2.97 ± 0.12 | 3.14 ± 0.14 | 2.07 ± 0.18
30 | LSVVKYLLASLKDSKDF [RPN9] | 2.19 ± 0.12 | 2.67 ± 0.16 |  | 
31 | LSYYVEETNVDIGVLEE [SMC4] |  | 3.38 ± 0.22 | 3.62 ± 0.072 | 3.5 ± 0.1
32 | LTCSLYELYINKLTILG [IRR1] | 1.36 ± 0.032 | 1.36 ± 0.04 | 1.34 ± 0.059 | 1.48 ± 0.045
33 | LTDKDAFETHYRRLFAK [CDC53] | 2.94 ± 0.057 | 3.19 ± 0.067 | 2.97 ± 0.047 | 2.97 ± 0.043
34 | LTIKDIVLGVKDLQENL [RPO21] |  | 2.86 ± 0.29 | 3.6 ± 0.048 | 
35 | LTKKYSFKIFVDVLVIS [RRP42] | 1.22 ± 0.049 | 1.25 ± 0.051 | 1.41 ± 0.071 | 1.44 ± 0.039
36 | LTLDPRYIWRSLKDLSS [RPN3] | 2.78 ± 0.14 | 2.39 ± 0.29 | 2.82 ± 0.097 | 
37 | LTLKEAELLVLKILKQV [PUP2] | 2.05 ± 0.29 | 2.4 ± 0.26 |  | 1.63 ± 0.25
38 | LTLLERKWVIFITKHLP [NUT1] | 2.59 ± 0.089 | 1.68 ± 0.064 | 1.45 ± 0.13 | 2.57 ± 0.079
39 | LTLQEDYIKDEQRHLKR [RPT3] | 3.43 ± 0.11 | 3.18 ± 0.081 | 3.14 ± 0.085 | 3.32 ± 0.07
40 | LTNLLSQLNIQLSQDEH [SRP72] | 3.01 ± 0.048 | 3.03 ± 0.051 | 3.21 ± 0.046 | 3.09 ± 0.042
41 | LTQLLSMMSDGIEHFDI [RPO31] | 2.93 ± 0.073 | 3.05 ± 0.085 | 3.1 ± 0.052 | 2.72 ± 0.089
42 | LTSDLVYFGDENKVMLP [RRI2] | 3.21 ± 0.093 | 3.34 ± 0.089 | 3.07 ± 0.076 | 3.03 ± 0.068
43 | LTSGLLYSYLIKENFFE [YJL039C/NUP192] | 1.9 ± 0.1 | 1.74 ± 0.14 | 1.71 ± 0.12 | 1.2 ± 0.077
44 | LTSVTRHGFNRSNTGAL [RPO21] | 2.48 ± 0.067 | 2.39 ± 0.063 | 2.75 ± 0.093 | 2.51 ± 0.058
45 | LTTAREHHSSVKYASPN [FAS2] | 3.02 ± 0.065 | 3.11 ± 0.057 | 3.04 ± 0.041 | 3.06 ± 0.04
46 | LVAIFGGQGNTDDYFEE [FAS1] | 3.15 ± 0.12 | 3.48 ± 0.083 | 3.26 ± 0.065 | 3.23 ± 0.064
47 | LVASAKGLQTVVVEEDA [RPL31A] | 2.48 ± 0.091 | 2.51 ± 0.1 | 2.54 ± 0.087 | 2.42 ± 0.085
48 | LVCGNDSSYQDIFAVNL [RET1] |  | 2.04 ± 0.25 | 2.24 ± 0.26 | 
49 | LVDDENEPSQSLISTRN [BRN1] | 3.22 ± 0.058 | 3.4 ± 0.064 | 3.19 ± 0.047 | 3.15 ± 0.057
50 | LVELMFIRSTNSWFDVT [FAS1] | 1.65 ± 0.092 | 1.98 ± 0.072 | 1.72 ± 0.2 | 1.51 ± 0.044
51 | LVETCLNDLVESSFIEI [BRR2] | 3.03 ± 0.053 | 2.75 ± 0.063 | 2.69 ± 0.085 | 2.46 ± 0.054
52 | LVFILAVVGNNMLLDPA [RRP42] | 1.56 ± 0.088 | 1.39 ± 0.076 | 1.94 ± 0.12 | 1.81 ± 0.063
53 | LVLDLLTWLSSFSVCKI [IRR1] | 2.21 ± 0.06 | 1.59 ± 0.05 | 1.65 ± 0.073 | 1.71 ± 0.039
54 | LVLGEVSKKELYAIKKV [BRR2] | 1.68 ± 0.073 | 2.37 ± 0.096 | 3.13 ± 0.079 | 1.83 ± 0.08
